Measured values: patent US20250270343A1 (Alector, published 2025)
Each block holds one binder with its values, some of them ahead of it.

Tests used:
[1] = target: T1, mouse GPNMB endogenously expressed on B16F10 cells (mouse, UniProt Q99P91 23-574); test: FACS, B16F10 cells; single-point FACS staining of B16F10 cells; weak signal, 1.7-fold over background
T1 construct: whole, on cells; also called moGPNMB
T1 sequence (looked up): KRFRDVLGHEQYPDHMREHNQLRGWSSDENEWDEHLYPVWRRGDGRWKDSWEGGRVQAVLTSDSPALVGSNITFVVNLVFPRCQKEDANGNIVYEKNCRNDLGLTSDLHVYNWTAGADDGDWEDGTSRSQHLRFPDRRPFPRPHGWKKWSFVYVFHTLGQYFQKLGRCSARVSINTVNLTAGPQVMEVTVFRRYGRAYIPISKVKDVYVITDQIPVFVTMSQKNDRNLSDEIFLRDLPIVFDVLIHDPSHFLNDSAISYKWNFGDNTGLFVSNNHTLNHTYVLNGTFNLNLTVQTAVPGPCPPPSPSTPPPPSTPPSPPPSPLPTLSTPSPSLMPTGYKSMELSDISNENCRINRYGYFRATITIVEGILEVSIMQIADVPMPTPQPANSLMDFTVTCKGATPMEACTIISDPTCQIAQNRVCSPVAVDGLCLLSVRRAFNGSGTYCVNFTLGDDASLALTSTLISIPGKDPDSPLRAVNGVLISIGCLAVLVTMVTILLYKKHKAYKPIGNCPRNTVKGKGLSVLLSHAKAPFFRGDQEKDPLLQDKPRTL

[2] = target: T1, mouse GPNMB endogenously expressed on …; test: FACS titration on B16F10 cells (endogenous mouse GPNMB) at 4 C; fluorescent secondary antibody; MFI-APC against soluble antibody (nM)
Experimental: Cell-based binding measurements were also performed to measure the apparent affinities of anti-GPNMB antibodies of the present disclosure to cell-surface expressed GPNMB. Serial dilutions of the monoclonal anti-GPNMB antibodies were added to 100,000 Freestyle293-huGPNMB+ or B16F10 cells and allowed to achieve binding equilibrium at 4° C. After addition of fluorescently labeled secondary antibody and brief washing steps, MFI values as a function of titrated antibody concentration was recorded via FACS analysis. Curves were fit using nonlinear regression analysis with Graphpad Prism 6 software.

[3] = target: T2, soluble mouse GPNMB-Fc polypeptide (mouse IgG2A Fc) (mouse, UniProt Q99P91 23-502); test: FACS, enhancing of moGPNMB-Fc binding to SVEC4-10 cells
T2 construct: extracellular domain; bought (R&D System); also called moGPNMB-Fc; mGPNMB-Fc; not shown: Fc region of mouse IgG2A
T2 sequence (looked up): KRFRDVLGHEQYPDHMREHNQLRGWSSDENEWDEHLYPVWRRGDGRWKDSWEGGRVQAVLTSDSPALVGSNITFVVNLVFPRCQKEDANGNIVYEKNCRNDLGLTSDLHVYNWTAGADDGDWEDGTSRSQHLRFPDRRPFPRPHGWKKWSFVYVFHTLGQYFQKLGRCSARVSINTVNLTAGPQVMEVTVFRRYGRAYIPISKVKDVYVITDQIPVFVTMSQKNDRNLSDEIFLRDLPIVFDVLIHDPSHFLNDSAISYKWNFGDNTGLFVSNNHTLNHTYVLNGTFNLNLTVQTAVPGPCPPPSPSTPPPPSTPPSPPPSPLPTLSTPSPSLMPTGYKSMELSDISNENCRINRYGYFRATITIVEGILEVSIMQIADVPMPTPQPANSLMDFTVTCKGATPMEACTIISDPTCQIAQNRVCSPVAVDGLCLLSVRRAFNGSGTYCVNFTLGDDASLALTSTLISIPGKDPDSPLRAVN
Experimental: Purified full-length anti-GPNMB antibodies of the present disclosure were evaluated for their ability to block binding of moGPNMB-Fc to SVEC4-10 cells to determine the ligand blocking potency of each anti-GPNMB monoclonal antibody. Briefly, 2 μg/mL moGPNMB-Fc (mouse IgG2A Fc) diluted in binding buffer was pre-complexed with increasing concentrations of anti-GPNMB antibody of the present disclosure or human IgG1 isotype control antibody in 96-well plates. Subsequently, 100,000 SVEC4-10 cells were added per well and incubated on ice for 30 minutes. Soluble moGPNMB-Fc bound to cell surface was detected with fluorescent anti-mouse IgG2A secondary antibody and measured on FACSCanto. (FIG. 5A and FIG. 5B) IC50 values (for antibodies that block moGPNMB-Fc cell binding) and EC50 values (for antibodies that enhance moGPNMB-Fc cell binding) based on changes in MFI values were calculated (average+standard error) for each anti-GPNMB antibody and listed in Table 6. In Table 6, NA indicates no activity. […] In all cases, certain anti-GPNMB antibodies of the present disclosure blocked soluble GPNMB binding to cells, while other anti-GPNMB antibodies of the present disclosure enhanced soluble GPNMB binding to cells.

[4] = target: T3, full-length untagged human GPNMB expressed on cells (human, UniProt Q14956 23-572); test: FACS, FS293-huGPNMB+ cells; single-point FACS staining of Freestyle293-huGPNMB+ cells; weak signal, 2.0-fold over background
T3 construct: also used here for GPNMB on human monocyte-derived macrophages in the functional assays; also called huGPNMB; Freestyle293-huGPNMB+
T3 sequence: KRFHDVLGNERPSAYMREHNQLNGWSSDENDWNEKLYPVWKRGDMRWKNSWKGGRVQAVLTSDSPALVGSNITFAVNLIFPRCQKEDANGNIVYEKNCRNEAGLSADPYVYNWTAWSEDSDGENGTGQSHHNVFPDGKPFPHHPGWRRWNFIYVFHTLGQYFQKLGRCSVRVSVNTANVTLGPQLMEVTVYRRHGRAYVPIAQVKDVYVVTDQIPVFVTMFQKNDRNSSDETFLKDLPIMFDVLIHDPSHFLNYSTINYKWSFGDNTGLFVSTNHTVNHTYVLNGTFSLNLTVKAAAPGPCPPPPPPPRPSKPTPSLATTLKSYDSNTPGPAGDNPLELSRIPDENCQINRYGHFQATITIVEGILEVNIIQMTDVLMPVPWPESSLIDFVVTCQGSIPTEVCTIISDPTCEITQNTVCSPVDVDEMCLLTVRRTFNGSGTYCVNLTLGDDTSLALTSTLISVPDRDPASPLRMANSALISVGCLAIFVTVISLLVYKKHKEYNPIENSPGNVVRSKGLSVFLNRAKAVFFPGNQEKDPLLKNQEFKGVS

[5] = target: T3, full-length untagged human GPNMB …; test: FACS, FS293-huGPNMB+ cells; single-point FACS staining of Freestyle293-huGPNMB+ cells; weak signal, 1.5-fold over background

B3: anti-GPNMB antibody GPN-42 (antibody, human IgG1, V domains shown)
VH: DVKLVESGEDLVKPGGSLKLSCAASGFTFSSYAMSWVRQTPEKRLEWVAYISSGGDYIYYADTVKGRFTISRDNARNTLYLQMSSLKSEDTAMYYCTRDRYYDYDVRDYYTMDYWGQGTSVTVSS
VL: DVMMTQTPLSLPVSLGDQASISCRSSQSLVHSNGNTYLHWFLQKPGQSPKLLIFRVSNRFSGVPDRFSGRGSGTDFTLKISRVEAEDLGVYFCSQTTHVPRTFGGGTTLEIK
notes: chimeric
EC50 [3]: 1.19 nM | MFI fold over background [4]: 2 fold

B4: anti-GPNMB antibody GPN-43 (antibody, human IgG1, V domains shown)
VH: EVQLQQSGPELVKPGASVKISCKASGYTFTDYYMNWVRQSHGKSLEWIGDINPYHGGSTYNQKIKVKATLTVDKSSSTAYMELRSLTSEDSAVYYCARNWPYFDYWGQGTTLTVSS
VL: DIQMTQSPASLSASVGETVTITCRASENIYSFLVWYQQKQGKSPQLLVYNAKTLAEGVPSRFSGSGSGTQFSLKISSLQPEDFGSYYCQHHFGTPPYTFGGGTKLEIK
notes: chimeric
MFI fold over background [5]: 1.5 fold

B5: anti-GPNMB antibody GPN-48 (antibody, human IgG1, V domains shown)
VH: QVQLQQSGPELVKPGASVKLSCRASGYGFSSFWMNWVKQRPGKGLEWIGRIYPGKGDTLYNGKFKDKATLTADESSSTAYMQLSSLTSEDSAVYFCARSIYYYDYWYFDVWDTGTTVTVSS
VL: DIVMTQSHKFMSTSVGDRVNITCKASQDVNSAIAWYQQKPGQSPKLLIYSASYRFIGVPDRFTGSGSGTGFTFTISSVQAEDLAVYYCQQHYTTPLTFGAGTKLELK
notes: chimeric
MFI fold over background [1]: 1.7 fold | EC50 (read off the curve) [2]: ~1 nM

Second part, the binder after the results:

MFI fold over background [1]: 1.7 fold | EC50 (read off the curve) [2]: ~0.1 nM
B1: anti-GPNMB antibody GPN-61 (antibody, human IgG1, V domains shown)
VH: DVQLQESGPGLVKPSQTVFLTCTVTGISITTGNYRWSWIRQFPGNKLEWIGYIYYSGTITYNPSLTSRTTITRDTPKNQFFLEMSSLTAEDTATYFCARDLRHWYFDVWGTGTTVTVSS
VL: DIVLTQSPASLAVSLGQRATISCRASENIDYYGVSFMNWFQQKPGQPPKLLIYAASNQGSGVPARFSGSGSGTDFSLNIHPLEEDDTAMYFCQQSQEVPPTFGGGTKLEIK
notes: chimeric

EC50 [3]: 4.27 nM
B2: anti-GPNMB antibody GPN-65 (antibody, human IgG1, V domains shown)
VH: QLQLQQSGTEVVKPGASVKIPCKASGYAFSSYWMNWVKQRPGKGLEWIGQIYPGDGDTNDNGKFEGKATLTVDKSSNTAYIQLSSLTSEDSAVYFCARSPLHLRGSMDYWGQGTSVTVSS
VL: SIVMTQTPKFLLVSAGDRVTITCKASQSVSNDVAWFQQKPGQSPELLIYSASNRYTGVPDRFTGSGYGTDFTFTISTVQAEDLAVYFCQQNYYSPFTFGGGTRLEIK
notes: chimeric
